Consider 7 molecules from article PMC314469, “Protein Interaction Networks by Proteome Peptide Scanning” (PLoS Biology, 2004).

One assay has as its target T1, Yhr016c SH3 (YSC84_YEAST), P32793.
T1 chain: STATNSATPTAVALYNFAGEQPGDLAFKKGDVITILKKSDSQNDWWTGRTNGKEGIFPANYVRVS
Put plainly: SPOT array.
The molecule PSSKKNKPNPPPGS [YJL056C 176-189] returned a normalised SPOT signal, Boehringer light units (BLU); mean over the file's lines of this peptide of 28.

PVPVRMQPQPPQPM [YBR108W 383-396]: the normalised SPOT signal, Boehringer light units (BLU); mean over the file's lines of this peptide stood at 145.

PSRSKSNPILPIMR [YLR319C 684-697] showed a normalised SPOT signal, Boehringer light units (BLU); mean over the file's lines of this peptide of 70.1.

Molecule PSSHKRKPVIPWDA [YNL295W 201-214] gave a normalised SPOT signal, Boehringer light units (BLU); mean over the file's lines of this peptide of 8.5.

PTVQKFSPHPPTTL [YER144C 362-375] gave a normalised SPOT signal, Boehringer light units (BLU); mean over the file's lines of this peptide of 16.

Regarding PTANKYAPVSPTVQ [YPL085W 797-810], the normalised SPOT signal, Boehringer light units (BLU); mean over the file's lines of this peptide turned out to be 11.2.

In the case of PRSKKKKPAPPTLL [YMR039C 165-178], the normalised SPOT signal, Boehringer light units (BLU); mean over the file's lines of this peptide turned out to be 37.5.

A further assay concerns the target T2, Boi1 SH3 (BOI1_YEAST), P38041.
T2 chain: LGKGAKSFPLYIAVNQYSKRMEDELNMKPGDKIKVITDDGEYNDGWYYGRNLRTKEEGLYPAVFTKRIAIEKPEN
Put plainly: SPOT array.
Turning to PSSKKNKPNPPPGS [YJL056C 176-189], the normalised SPOT signal, Boehringer light units (BLU); mean over the file's lines of this peptide was determined as 571.

In turn, PVPVRMQPQPPQPM [YBR108W 383-396] yielded a normalised SPOT signal, Boehringer light units (BLU); mean over the file's lines of this peptide of 93.8.

Turning to PSRSKSNPILPIMR [YLR319C 684-697], the normalised SPOT signal, Boehringer light units (BLU); mean over the file's lines of this peptide was 196.

For the molecule PSSHKRKPVIPWDA [YNL295W 201-214], the normalised SPOT signal, Boehringer light units (BLU); mean over the file's lines of this peptide was 93.5.

Consider PTVQKFSPHPPTTL [YER144C 362-375], for which the normalised SPOT signal, Boehringer light units (BLU); mean over the file's lines of this peptide came out at 58.

As for PTANKYAPVSPTVQ [YPL085W 797-810], the normalised SPOT signal, Boehringer light units (BLU); mean over the file's lines of this peptide came out at 168.

PRSKKKKPAPPTLL [YMR039C 165-178] yielded a normalised SPOT signal, Boehringer light units (BLU); mean over the file's lines of this peptide of 84.3.

For a further assay, the target named is T3, Boi2 SH3 (BOI2_YEAST), P39969.
T3 chain: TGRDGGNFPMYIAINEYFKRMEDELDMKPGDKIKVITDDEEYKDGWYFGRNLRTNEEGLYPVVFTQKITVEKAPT
As to the kind of experiment: SPOT array.
Consider PSSKKNKPNPPPGS [YJL056C 176-189], for which the normalised SPOT signal, Boehringer light units (BLU); mean over the file's lines of this peptide worked out at 0.8.

PVPVRMQPQPPQPM [YBR108W 383-396] came in with a normalised SPOT signal, Boehringer light units (BLU); mean over the file's lines of this peptide of 85.6.

The molecule PSRSKSNPILPIMR [YLR319C 684-697] yielded a normalised SPOT signal, Boehringer light units (BLU); mean over the file's lines of this peptide of 25.1.

For PSSHKRKPVIPWDA [YNL295W 201-214], the normalised SPOT signal, Boehringer light units (BLU); mean over the file's lines of this peptide was determined as 40.8.

As for PTVQKFSPHPPTTL [YER144C 362-375], the normalised SPOT signal, Boehringer light units (BLU); mean over the file's lines of this peptide stood at 14.5.

PTANKYAPVSPTVQ [YPL085W 797-810] showed a normalised SPOT signal, Boehringer light units (BLU); mean over the file's lines of this peptide of 27.4.

As to PRSKKKKPAPPTLL [YMR039C 165-178], the normalised SPOT signal, Boehringer light units (BLU); mean over the file's lines of this peptide came out at 17.2.

In a further assay the target is Sho1 SH3 (SHO1_YEAST), P40073. As to the kind of experiment: SPOT array.
Chain of Sho1 SH3 (SHO1_YEAST), P40073 (P40073 295-366): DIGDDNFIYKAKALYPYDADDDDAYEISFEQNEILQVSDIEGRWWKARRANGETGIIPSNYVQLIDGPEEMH
For PSSKKNKPNPPPGS [YJL056C 176-189], the normalised SPOT signal, Boehringer light units (BLU); mean over the file's lines of this peptide turned out to be 72.1.

Molecule PVPVRMQPQPPQPM [YBR108W 383-396] gave a normalised SPOT signal, Boehringer light units (BLU); mean over the file's lines of this peptide of 71.7.

Turning to PSRSKSNPILPIMR [YLR319C 684-697], the normalised SPOT signal, Boehringer light units (BLU); mean over the file's lines of this peptide came to 98.4.

Regarding PSSHKRKPVIPWDA [YNL295W 201-214], the normalised SPOT signal, Boehringer light units (BLU); mean over the file's lines of this peptide is 79.1.

Molecule PTVQKFSPHPPTTL [YER144C 362-375] yielded a normalised SPOT signal, Boehringer light units (BLU); mean over the file's lines of this peptide of 44.4.

For the molecule PTANKYAPVSPTVQ [YPL085W 797-810], the normalised SPOT signal, Boehringer light units (BLU); mean over the file's lines of this peptide turned out to be 37.8.

PRSKKKKPAPPTLL [YMR039C 165-178]: the normalised SPOT signal, Boehringer light units (BLU); mean over the file's lines of this peptide turned out to be 57.4.

The target in the next assay is T4, Rvs167 SH3 (RV167_YEAST), P39743.
T4 chain: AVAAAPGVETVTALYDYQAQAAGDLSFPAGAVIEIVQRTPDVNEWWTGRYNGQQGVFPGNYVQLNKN
As to the kind of experiment: SPOT array.
PSSKKNKPNPPPGS [YJL056C 176-189] gave a normalised SPOT signal, Boehringer light units (BLU); mean over the file's lines of this peptide of 40.5.

PVPVRMQPQPPQPM [YBR108W 383-396] came in with a normalised SPOT signal, Boehringer light units (BLU); mean over the file's lines of this peptide of 70.5.

For PSRSKSNPILPIMR [YLR319C 684-697], the normalised SPOT signal, Boehringer light units (BLU); mean over the file's lines of this peptide came out at 246.

As to PSSHKRKPVIPWDA [YNL295W 201-214], the normalised SPOT signal, Boehringer light units (BLU); mean over the file's lines of this peptide was 52.

For the molecule PTVQKFSPHPPTTL [YER144C 362-375], the normalised SPOT signal, Boehringer light units (BLU); mean over the file's lines of this peptide came to 20.8.

Consider PTANKYAPVSPTVQ [YPL085W 797-810], for which the normalised SPOT signal, Boehringer light units (BLU); mean over the file's lines of this peptide worked out at 93.3.

Molecule PRSKKKKPAPPTLL [YMR039C 165-178] had a normalised SPOT signal, Boehringer light units (BLU); mean over the file's lines of this peptide of 49.7.

A further assay has as its target T5, Yfr024 SH3 (LSB3_YEAST), P43603.
T5 chain: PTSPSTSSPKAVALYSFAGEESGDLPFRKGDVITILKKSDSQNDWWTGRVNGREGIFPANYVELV
Put plainly: SPOT array.
In turn, PSSKKNKPNPPPGS [YJL056C 176-189] came in with a normalised SPOT signal, Boehringer light units (BLU); mean over the file's lines of this peptide of 49.2.

With PVPVRMQPQPPQPM [YBR108W 383-396], the normalised SPOT signal, Boehringer light units (BLU); mean over the file's lines of this peptide is 1650.

Molecule PSRSKSNPILPIMR [YLR319C 684-697] gave a normalised SPOT signal, Boehringer light units (BLU); mean over the file's lines of this peptide of 1260.

Molecule PSSHKRKPVIPWDA [YNL295W 201-214] had a normalised SPOT signal, Boehringer light units (BLU); mean over the file's lines of this peptide of 65.5.

Consider PTVQKFSPHPPTTL [YER144C 362-375], for which the normalised SPOT signal, Boehringer light units (BLU); mean over the file's lines of this peptide stood at 10.2.

In the case of PTANKYAPVSPTVQ [YPL085W 797-810], the normalised SPOT signal, Boehringer light units (BLU); mean over the file's lines of this peptide stood at 0.

As to PRSKKKKPAPPTLL [YMR039C 165-178], the normalised SPOT signal, Boehringer light units (BLU); mean over the file's lines of this peptide worked out at 157.

The next assay deals with T6, Myo5 SH3 (MYO5_YEAST), Q04439.
T6 chain: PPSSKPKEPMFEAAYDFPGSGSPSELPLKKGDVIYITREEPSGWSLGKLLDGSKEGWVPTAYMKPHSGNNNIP
Put plainly: SPOT array.
In turn, PSSKKNKPNPPPGS [YJL056C 176-189] displayed a normalised SPOT signal, Boehringer light units (BLU); mean over the file's lines of this peptide of 107.

In turn, PVPVRMQPQPPQPM [YBR108W 383-396] gave a normalised SPOT signal, Boehringer light units (BLU); mean over the file's lines of this peptide of 188.

For the molecule PSRSKSNPILPIMR [YLR319C 684-697], the normalised SPOT signal, Boehringer light units (BLU); mean over the file's lines of this peptide stood at 523.

As to PSSHKRKPVIPWDA [YNL295W 201-214], the normalised SPOT signal, Boehringer light units (BLU); mean over the file's lines of this peptide stood at 289.

In turn, PTVQKFSPHPPTTL [YER144C 362-375] gave a normalised SPOT signal, Boehringer light units (BLU); mean over the file's lines of this peptide of 213.

The molecule PTANKYAPVSPTVQ [YPL085W 797-810] returned a normalised SPOT signal, Boehringer light units (BLU); mean over the file's lines of this peptide of 191.

Regarding PRSKKKKPAPPTLL [YMR039C 165-178], the normalised SPOT signal, Boehringer light units (BLU); mean over the file's lines of this peptide amounted to 413.
